Source: patent US20090186036A1 (Biogen, published 2009)

B1: 7.7G5 (antibody, V domains shown)
VH: EVQLQQSGPELVKPGASVKISCKASGYSFTGYFMNWVMQSHGKSLEWIGRIKPYNGDNFYNQKFMGKATLTVDKSSSTVHMELRSLASEDSAVYYCARDRYGTYGMDYWGQGTSVTVSS
VL: QIVLTQSPAIMSASPGEKVTMTCSASSSVSYMHWYQQKSGTSPKRWIYDTSKLASGVPTRFSGSGSGTSYSLTINSMEAEDAATYYCQQWSSHPPTFGAGTKLELK
notes: ATCC PTA-3899
B2: 7.1G10 (antibody, V domains shown)
VH: QVQLQQSGPELVKPGASVRISCKASGYTFTSYYIHWVKQRPGQGLEWIGWLYPGKINTRYNEKFKGKATLIADKSSSTAYMQLSSLTSEDSAVYFCARHVLNGNFDYWGQGTTLTVSS
VL: DIQMTQSPSSLSASLGERVSLTCRASQEISGYLSWLQQKPDGSIKRLIYAASTLDSGVPKRFSGSRSGADYSLTISSLESEDFADYYCLQYATYPYTFGGGTKLEIK
notes: ATCC PTA-3898
B3: soluble recombinant human αvβ6 (receptor)
chain 1: FNLDVDSPAEYSGPEGSYFGFAVDFFVPSASSRMFLLVGAPKANTTQPGIVEGGQVLKCDWSSTRRCQPIEFDATGNRDYAKDDPLEFKSHQWFGASVRSKQDKILACAPLYHWRTEMKQEREPVGTCFLQDGTKTVEYAPCRSQDIDADGQGFCQGGFSIDFTKADRVLLGGPGSFYWQGQLISDQVAEIVSKYDPNVYSIKYNNQLATRTAQAIFDDSYLGYSVAVGDFNGDGIDDFVSGVPRAARTLGMVYIYDGKNMSSLYNFTGEQMAAYFGFSVAATDINGDDYADVFIGAPLFMDRGSDGKLQEVGQVSVSLQRASGDFQTTKLNGFEVFARFGSAIAPLGDLDQDGFNDIAIAAPYGGEDKKGIVYIFNGRSTGLNAVPSQILEGQWAARSMPPSFGYSMKGATDIDKNGYPDLIVGAFGVDRAILYRARPVITVNAGLEVYPSILNQDNKTCSLPGTALKVSCFNVRFCLKADGKGVLPRKLNFQVELLLDKLKQKGAIRRALFLYSRSPSHSKNMTISRGGLMQCEELIAYLRDESEFRDKLTPITIFMEYRLDYRTAADTTGLQPILNQFTPANISRQAHILLDCGEDNVCKPKLEVSVDSDQKKIYIGDDNPLTLIVKAQNQGEGAYEAELIVSIPLQADFIGVVRNNEALARLSCAFKTENQTRQVVCDLGNPMKAGTQLLAGLRFSVHQQSEMDTSVKFDLQIQSSNLFDKVSPVVSHKVDLAVLAAVEIRGVSSPDHVFLPIPNWEHKENPETEEDVGPVVQHIYELRNNGPSSFSKAMLHLQWPYKYNNNTLLYILHYDIDGPMNCTSDMEINPLRIKISSLQTTEKNDTVAGQGERDHLITKRDLALSEGDIHTLGCGVAQCLKIVCQVGRLDRGKSAILYVKSLLWTETFMNKENQNHSYSLKSSASFNVIEFPYKNLPIEDITNSTLVTTNVTWGIQPAPMPV
chain 2: GCALGGAETCEDCLLIGPQCAWCAQENFTHPSGVGERCDTPANLLAKGCQLNFIENPVSQVEILKNKPLSVGRQKNSSDIVQIAPQSLILKLRPGGAQTLQVHVRQTEDYPVDLYYLMDLSASMDDDLNTIKELGSRLSKEMSKLTSNFRLGFGSFVEKPVSPFVKTTPEEIANPCSSIPYFCLPTFGFKHILPLTNDAERFNEIVKNQKISANIDTPEGGFDAIMQAAVCKEKIGWRNDSLHLLVFVSDADSHFGMDSKLAGIVIPNDGLCHLDSKNEYSMSTVLEYPTIGQLIDKLVQNNVLLIFAVTQEQVHLYENYAKLIPGATVGLLQKDSGNILQLIISAYEELRSEVELEVLGDTEGLNLSFTAICNNGTLFQHQKKCSHMKVGDTASFSVTVNIPHCERRSRHIIIKPVGLGDALELLVSPECNCDCQKEVEVNSSKCHHGNGSFQCGVCACHPGHMGPRCECGEDMLSTDSCKEAPDHPSCSGRGDCYCGQCICHLSPYGNIYGPYCQCDNFSCVRHKGLLCGGNGDCDCGECVCRSGWTGEYCNCTTSTDSCVSEDGVLCSGRGDCVCGKCVCTNPGASGPTCERCPTCGDPCNSKRSCIECHLSAAGQAREECVDKCKLAGATISEEEDFSKDGSVSCSLQGENECLITFLITTDNEGKTIIHSINEKDCPKPPNIP
notes: extracellular domain; also called hsαvβ6; soluble human truncated αvβ6

How the values were obtained:
[1] = target: αvβ6 on β6-transfected SW480 cells (UniProt P06756 31-1048; P18564 22-788); experiment: cell-based or functional assay
[2] = target: T1, αvβ6 on β6-transfected FDC-P1 cells (murine, UniProt P43406 31-1044; Q9Z0T9 22-787); experiment: β6-FDC-P1 cells to coated LAP, blocking
T1 construct: whole, on cells; αv is that of the murine host cell line; also called β6-FDC-P1 cells; β6-transfected murine cells
Procedure: A 96-well microtiter plate was coated with 50 μl/well of 0.5 μg/ml recombinant human LAP (R&D Systems) diluted in 50 mM sodium bicarbonate, pH 9.2 at 4° C. overnight. The plate was washed twice with PBS (100 μl/well) and blocked with 1% BSA in PBS (100 μl/well) for 1 hr at 25° C. The plate was washed twice with 100 μl/well of assay buffer (TBS complete plus 1 mM CaCl₂ and 1 mM MgCl₂). Next, to the individual wells of the plate were added 25 μl of a hybridoma supernatant (or a purified antibody) and 25 μl of β₆-FDC-P1 cells (5×10⁶ cells/ml, labeled with Calcein AM as described above). The plate was incubated at 25° C. for 1 hr, and then washed 4-6 times with the assay buffer (100 μl/well). The fluorescence emitted from cells captured on the plate was recorded. Percentage binding was determined by comparing the fluorescence signal prior to the final wash step (i.e., total cells added) to that after washing (i.e., bound cells).

[3] = target: B3; experiment: biotin-hsαvβ6 to coated LAP, blocking
Procedure: 96-well microtiter plates (Corning COSTAR EASY-WASH) were coated with 0.3 μg/ml recombinant human LAP (R&D Systems, Cat. # 246-LP) diluted in PBS (50 μl/well) at 4° C. overnight. After the coating solution was removed, the plates were blocked with 180 μl/well of 3% BSA/TBS at 25° C. for 1 hr. […] After washing the LAP-coated plate with wash buffer (0.1% TWEEN-20 in PBS) 4 times in an automated plate washer, 100 μl of the antibody-αᵥβ₆ mixture was transferred to the plate, and incubated for 1 hr at 25° C. The plate was washed as above and incubated with 50 μl/well of a 1:1000 dilution of extravidin-horseradish peroxidase conjugate (Sigma) in TBS (1 mg/ml BSA) for 1 hr at 25° C. Bound protein was detected using the TMB substrate.
The purified antibodies were next evaluated for their ability to inhibit the αᵥβ₆-LAP interaction.

[4] = target: B3; experiment: ELISA, coated hsαvβ6
Procedure: A 96-well microtiter plate (Corning COSTAR EASY-WASH) was coated with 50 μl/well of 5 μg/ml hsαᵥβ₆ at 4° C. overnight. The plate was washed with wash buffer (0.1% TWEEN-20 in PBS) four times in an automated plate washer. Then 180 μl/well of 3% BSA in TBS was added and incubated for 1 hr at 25° C. to block nonspecific binding. The plate was washed as above, and dilutions of either hybridoma supernatant (for screening assays) or purified antibody (for characterization) in TBS containing 1 mg/ml BSA, 1 mM CaCl₂, and 1 mM MgCl₂ were added (50 μl/well). The plate was incubated for 1 hr at 25° C., washed, and then incubated for 1 hr with 50 μl/well of […] goat anti-mouse IgG+A+M antibody (Cappel). Bound antibody was detected using 3,3′,5,5′-tetramethylbenzidine (TMB). Binding was indicated by the absorbency measured at 450 nm.

6.3G9 = target: T2, 6.3G9; experiment: KinExA: soluble αvβ6 titrated against 1e-10 M antibody, free antibody caught on integrin-coated beads
T2 construct: ATCC PTA-3649; also called biotinylated 6.3G9
Procedure: A series of dilutions of the soluble integrin (1×10⁻⁸ M to 2.4×10⁻¹² M) were incubated with 1×10⁻¹⁰ M of the antibody for 3 h. These samples were then passed through polymethylmethacrylate beads coated with the integrin using a KinExA instrument (Sapidyne Instruments, Inc., Boise, Id.). In the case of 6.8G6, 11 mM CaCl₂ and […] MgCl₂ were included in the incubation and assay buffers. The amounts of bound and free antibody were determined using a Cy5-labeled anti-mouse secondary antibody. Quadratic curve fitting was performed using the KinExA software to attain a dissociation constant (Kd) for each interaction. […] Thus, both of these antibodies had very high affinities for αᵥβ₆.

T1 sequence (P43406 31-1044, chain 1 of 2): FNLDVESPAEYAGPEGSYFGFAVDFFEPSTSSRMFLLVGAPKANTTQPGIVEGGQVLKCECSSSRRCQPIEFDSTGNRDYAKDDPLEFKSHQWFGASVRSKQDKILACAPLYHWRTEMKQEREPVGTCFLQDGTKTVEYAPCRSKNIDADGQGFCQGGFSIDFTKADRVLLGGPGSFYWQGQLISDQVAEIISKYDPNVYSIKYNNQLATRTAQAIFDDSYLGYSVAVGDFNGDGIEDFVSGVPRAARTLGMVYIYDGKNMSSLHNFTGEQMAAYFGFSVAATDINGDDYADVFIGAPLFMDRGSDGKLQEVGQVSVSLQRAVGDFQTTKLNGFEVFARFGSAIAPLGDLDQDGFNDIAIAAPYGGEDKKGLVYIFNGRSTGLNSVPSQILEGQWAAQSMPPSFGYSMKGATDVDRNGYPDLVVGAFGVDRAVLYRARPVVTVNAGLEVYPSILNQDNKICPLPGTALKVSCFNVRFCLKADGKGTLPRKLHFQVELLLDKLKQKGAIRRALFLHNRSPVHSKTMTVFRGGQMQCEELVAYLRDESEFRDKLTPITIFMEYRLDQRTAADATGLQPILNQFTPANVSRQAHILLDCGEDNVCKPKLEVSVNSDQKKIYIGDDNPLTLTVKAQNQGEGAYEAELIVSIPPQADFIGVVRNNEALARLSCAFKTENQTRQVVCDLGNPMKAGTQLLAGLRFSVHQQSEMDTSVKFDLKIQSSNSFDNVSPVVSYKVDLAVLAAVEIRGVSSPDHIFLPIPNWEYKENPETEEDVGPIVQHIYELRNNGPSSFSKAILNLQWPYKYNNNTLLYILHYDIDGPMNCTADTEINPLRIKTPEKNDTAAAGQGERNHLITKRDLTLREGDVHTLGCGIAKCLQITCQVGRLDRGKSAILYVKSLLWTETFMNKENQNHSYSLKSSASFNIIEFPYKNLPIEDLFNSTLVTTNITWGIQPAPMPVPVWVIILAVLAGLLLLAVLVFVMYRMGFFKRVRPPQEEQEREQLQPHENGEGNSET
T1 sequence (Q9Z0T9 22-787, chain 2 of 2): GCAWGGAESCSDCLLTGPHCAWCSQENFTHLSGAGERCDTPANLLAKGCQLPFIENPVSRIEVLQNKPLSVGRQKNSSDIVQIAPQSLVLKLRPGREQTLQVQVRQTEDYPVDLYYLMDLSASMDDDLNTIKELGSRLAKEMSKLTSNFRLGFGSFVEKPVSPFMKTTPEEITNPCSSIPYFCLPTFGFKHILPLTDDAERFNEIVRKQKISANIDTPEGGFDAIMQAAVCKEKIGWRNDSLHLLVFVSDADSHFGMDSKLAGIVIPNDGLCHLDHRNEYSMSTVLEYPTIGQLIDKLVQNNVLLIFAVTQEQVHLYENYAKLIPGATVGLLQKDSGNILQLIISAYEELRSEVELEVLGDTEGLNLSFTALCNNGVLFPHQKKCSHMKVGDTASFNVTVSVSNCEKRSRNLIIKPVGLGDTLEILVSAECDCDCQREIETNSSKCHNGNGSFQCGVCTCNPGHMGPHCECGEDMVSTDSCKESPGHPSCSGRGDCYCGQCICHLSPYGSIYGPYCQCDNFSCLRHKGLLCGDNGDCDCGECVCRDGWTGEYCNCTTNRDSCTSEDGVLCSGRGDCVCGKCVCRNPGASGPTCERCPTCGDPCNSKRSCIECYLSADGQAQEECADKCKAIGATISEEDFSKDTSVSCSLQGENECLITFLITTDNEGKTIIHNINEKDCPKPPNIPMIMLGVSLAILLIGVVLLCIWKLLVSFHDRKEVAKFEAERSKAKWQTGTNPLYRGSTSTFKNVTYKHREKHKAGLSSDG

| Binder | PAI-1 luciferase IC50 [1] | IC50 [2] | IC50 [3] | EC50 [4] | IC50 (read off the curve) (6.3G9) |
| --- | --- | --- | --- | --- | --- |
| B1 | 0.7 µg/mL | 0.051 µg/mL | 0.155 µg/mL | 0.013 µg/mL | – |
| B2 | 0.25 µg/mL | 0.03 µg/mL | 0.113 µg/mL | 0.0042 µg/mL | – |
| B3 | – | – | – | – | ~0.05 nM |
